Targets include HLA-B*53:01; HLA-A*02:01; HLA-B*07:02; HLA-B*44:03; HLA-B*57:01.
What all share (assay): IEDB peptide-MHC binding, purified MHC/competitive/radioactivity; ≥ and ≤ were set here for values at or beyond the usual limits of such assays
Conditions in all cases: source organism: Bordetella pertussis

Take NPQTQLSNI: in the assay with HLA-B*53:01, the IC50 was found to be 23.6 µM. PGTFTAGKD: the IC50 in the assay with HLA-A*02:01 amounted to 62.5 µM. Regarding PPRPVVAEK, in the assay with HLA-B*07:02, the IC50 was 69.6 µM. As for ANEANALLW, the half-maximal inhibitory concentration (IC50) in the assay with HLA-B*44:03 was 9.19 µM. On the same count and under the same terms, for EVDGIIQEF the value was 15.9 µM.

In the case of ILPILVLAL, the IC50 in the assay with HLA-A*02:01 worked out at 0.0254 µM.

For the sequence YEDATFETY, the 50% inhibitory concentration (IC50) in the assay with HLA-B*44:03 amounted to 3.73 µM. For the sequence FDTMLGFAI, the concentration for half-maximal inhibition (IC50) with HLA-B*53:01 is 2.91 µM. As to PGTPGDLLE, the half-maximal inhibitory concentration (IC50) with HLA-B*53:01 was at least 78.2 µM. Take FTHADGWFL: the half-inhibitory concentration (IC50) with HLA-A*02:01 is 14 µM. In the case of VEASAITTY, in the assay with HLA-B*44:03, the IC50 amounted to 1.97 µM. As to SSTPLGSLF, the concentration for half-maximal inhibition (IC50) in the assay with HLA-B*57:01 is at least 70.4 µM. Consider LSDAGHEHD, for which, in the assay with HLA-B*53:01, the 50% inhibitory concentration (IC50) was found to be 36.5 µM.

Usually IC50 stands for the concentration needed to halve the response being measured.

The values are drawn from the Immune Epitope Database (IEDB).
